Assay results published in patent US9957308B2, “Method for detecting bilirubin using a fluorescent protein” (RIKEN, priority 2013, dated 2018).

How the values were obtained:
apo UnaG protein = molecular target: T1, apo UnaG protein (Anguilla japonica, UniProt P0DM59); assay: Reconstruction of apo UnaG protein using bilirubin or bilirubin analog, fluorescence intensity; format: binding, Japanese eel (Anguilla japonica); conditions: 0.5 μM apo UnaG, ligand 0.125-2.0 μM, 30 min room temperature, excitation 497 nm / emission 527 nm
T1 construct: GST (N, cleaved yes); made in house; host or cells: Escherichia coli BL21 (DE3)
Procedure: Bilirubin or a bilirubin analog, biliverdin (Toronto Research Chemicals), urobilin (MP Biomedicals), or ditaurobilirubin (Frontier Scientific), was diluted with PBS such that the final concentration was 0.125 μM, 0.25 μM, 0.5 μM, 1.0 μM, or 2.0 μM and was mixed with 0.5 μM apo UnaG protein. The mixture was left to stand at room temperature for 30 min. Subsequently, 200 μL of the mixture was added to each well of a 96 well microplate (Greiner Bio-One) and was subjected to measurement of the fluorescence intensity at a wavelength of 527 nm with excitation light having a wavelength of 497 nm using EnSpire multi-mode plate reader (PerkinElmer Co., Ltd.).

[1] = Evaluation of aggregability of protein by dynamic light scattering particle diameter; format: physicochemical; conditions: wild-type 10 mg/mL, R82EK84E mutant 8.5 mg/mL
Procedure: Protein solutions (each 20 μL) of wild-type UnaG protein (10 mg/mL) and R82EK84E mutated UnaG protein (8.5 mg/mL) were each supplied to Microtrac particle size analyzer MT3000II (Nikkiso Co., Ltd.), and the particle diameters were measured by a dynamic light scattering. The aggregability was evaluated by plotting frequency against particle diameter.

[2] = Detection of unconjugated bilirubin in human serum by apo UnaG fluorescence; conditions: apo UnaG added to 200-fold diluted human serum, room temperature, 527 nm
Procedure: Blood (5 mL) was collected in a vacuum sealed blood collection tube (Neo-Tube, NIPRO) from a vein of the arm using a needle of 23G (Terumo Corporation) and a 5-mL cylinder (Terumo Corporation). The collected blood was shielded from light and was left to stand at room temperature for 30 min and was then centrifuged at a rotation speed of 3,000 rpm for 20 min (KUBOTA K-80) to collect about 2.5 mL of serum. The collected serum was cooled with ice while being shielded from light and was promptly subjected to measurement of bilirubin.
Apo UnaG was added to the serum diluted with PBS by 200-fold so as to give a final concentration of 0.5 μM, and 200 μL of the mixture was added to each well of a 96-well microplate (black, non-binding, Greiner Bio-One). Measurement of fluorescence was started immediately after the addition of samples to the plate. The fluorescence intensity was measured at room temperature at every 10 min for 1 hr at a fluorescence wavelength of 527 nm (excitation wavelength: 497 nm) using EnSpire (trademark) multi-mode plate reader (PerkinElmer Co., Ltd.). Each serum was measured using three wells, and the serum not mixed with apo UnaG protein was also measured as background. The net fluorescence intensity was determined by subtracting the intensity level of the background from the intensity level of the serum mixed with apo UnaG protein. […]

B1: UnaG: fluorescent polypeptide including the amino acid sequence of SEQ ID NO: 1, originally isolated from Japanese eel; fluoresces in the presence of bilirubin (protein, listed as Anguilla japonica)
chain: MVEKFVGTWKIADSHNFGEYLKAIGAPKELSDGGDATTPTLYISQKDGDKMTVKIENGPPTFLDTQVKFKLGEEFDEFPSDRRKGVKSVVNLVGEKLVYVQKWDGKETTYVREIKDGKLVVTLTMGDVVAVRSYRRATE
For B1, the “fluorescence of UnaG on addition of ligand (specificity)” value (apo UnaG protein) was “specific to bilirubin”, the “particle diameter distribution (peaks)” value [1] was “two peaks of different particle diameter distribution ranges” and the “time stable fluorescence lasts” value [2] was ≥ 1 h. The “time until stable fluorescence is generated” value [2] was “about 10 min”.
